Reference: US20150218285A1 (TORAY INDUSTRIES, published 2015)
One block for each binder: values may come before it.

What was measured:
[1] = biological target: T1, CAPRIN-1 protein on the cell surface of human cancer cells (human, UniProt Q14444 2-709); experiment: cell-based or functional assay
T1 sequence (looked up): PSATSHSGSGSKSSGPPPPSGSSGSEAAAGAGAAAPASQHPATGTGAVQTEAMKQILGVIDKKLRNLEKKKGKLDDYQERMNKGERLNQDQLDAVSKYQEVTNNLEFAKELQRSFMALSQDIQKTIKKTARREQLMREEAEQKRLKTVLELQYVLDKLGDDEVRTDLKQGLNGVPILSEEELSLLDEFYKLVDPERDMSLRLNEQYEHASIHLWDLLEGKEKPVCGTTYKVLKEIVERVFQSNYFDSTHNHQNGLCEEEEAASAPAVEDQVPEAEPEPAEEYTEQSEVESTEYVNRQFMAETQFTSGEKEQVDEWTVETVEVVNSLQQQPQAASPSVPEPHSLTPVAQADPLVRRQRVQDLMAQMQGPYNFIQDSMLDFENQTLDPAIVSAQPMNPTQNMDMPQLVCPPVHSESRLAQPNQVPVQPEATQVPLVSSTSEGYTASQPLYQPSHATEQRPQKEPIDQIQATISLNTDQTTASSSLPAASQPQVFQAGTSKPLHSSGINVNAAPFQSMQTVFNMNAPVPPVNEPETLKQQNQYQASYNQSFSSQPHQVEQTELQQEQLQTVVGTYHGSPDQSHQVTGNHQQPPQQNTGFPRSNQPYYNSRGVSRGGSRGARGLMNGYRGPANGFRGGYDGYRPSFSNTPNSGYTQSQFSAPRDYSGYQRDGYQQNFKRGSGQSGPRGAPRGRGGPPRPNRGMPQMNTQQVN

[2] = biological target: T2, polypeptide comprising the amino acid sequence set forth in SEQ ID NO: 269 (human); experiment: ELISA on immobilised synthetic CAPRIN-1 peptides, culture supernatant
T2 peptide: PPVNEPETLKQQNQYQAS

[3] = biological target: T3, polypeptide set forth in SEQ ID NO: 430 (human); experiment: ELISA on 93 synthetic CAPRIN-1 peptides, purified antibody 0.1 ug/mL
T3 peptide: ATQVPLVSSTSEGYTA
Procedure: Candidate peptides (93 peptides) each consisting of 12 to 16 amino acids of the amino acid sequence of the human CAPRIN-1 protein were synthesized and were each dissolved at a concentration of 1 mg/mL in DMSO. Each peptide was dissolved at a concentration of 30 μg/mL in a 0.1 M sodium carbonate buffer (pH 9.6). The solution was added to a 96-well plate (manufactured by Nunc, Product No. 436006) at 100 μL per well, followed by being left to stand at 4° C. overnight. The solution was removed, and 200 μL of 10 mM ethanolamine/0.1 M sodium carbonate buffer (pH 9.6) was added to each well, followed by being left to stand at room temperature for 1 hour. The solution was removed, and each well was washed with PBS containing 0.5% Tween 20 (PBST) twice to prepare a peptide-immobilized plate. For confirmation, this plate was also provided with a well to which the CAPRIN-1 protein was immobilized in accordance with the method described above. Rabbit anti-CAPRIN-1 monoclonal antibody #1 purified to a concentration of 0.1 ug/mL by a usual method was added to the plate at an amount of 50 μL per well, followed by shaking at room temperature for 1 hour. The solution was removed, and each well was washed with PBST three times. […] The absorbance was measured at 450 nm and 595 nm with an absorption spectrometer. […]

[4] = biological target: T3, polypeptide set forth in SEQ ID NO: 430; experiment: ELISA as in Example 13(1), purified antibody
[5] = biological target: T1, CAPRIN-1 protein on the cell surface of …; experiment: flow cytometry on Hep3B, HepG2, SK-Hep-1, SW480; antibody 20 ug/mL; control: secondary antibody only
Procedure: Four human liver cancer cell lines (Hep3 GB, HepG2, SK-Hep-1, and SW480) were investigated whether or not a CAPRIN-1 protein is expressed on the cell surface using mouse anti-CAPRIN-1 monoclonal antibodies #30 to #36. 5×10⁵ cells of each of the liver cancer cell lines were centrifuged with a 1.5-mL micro centrifugation tube. The cells were subjected to reaction with each of mouse anti-CAPRIN-1 antibodies #30 to #36 at a final concentration of 20 μg/mL, followed by being left to stand on ice for 1 hour. After washing with PBS, the cells were reacted with a 100-fold diluted Alexa488-labeled goat anti-mouse IgG antibody (manufactured by Invitrogen Corporation), followed by being left to stand on ice for […]. After washing with PBS, the fluorescence intensity was measured with FACS Calibur available from Becton, Dickinson and Company. Separately, the cells were subjected to reaction with only the secondary antibody as a negative control.

[6] = biological target: T4, polypeptide set forth in SEQ ID NO: 266 (human); experiment: ELISA on immobilised synthetic CAPRIN-1 peptides, culture supernatant
T4 construct: identified by ELISA on synthetic 12-16 aa peptides of human CAPRIN-1
T4 peptide: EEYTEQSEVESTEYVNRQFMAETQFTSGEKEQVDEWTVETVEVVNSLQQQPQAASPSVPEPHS

[7] = biological target: T5, peptide set forth in SEQ ID NO: 268 (human); experiment: as above
T5 peptide: FTSGEKEQVDEW

[8] = biological target: T1, CAPRIN-1 protein on the cell surface of …; experiment: flow cytometry on Hep3B, HepG2, SK-Hep-1, SW480; culture supernatant; vs isotype control
Procedure: Subsequently, four liver cancer cell lines (Hep3 GB, HepG2, SK-Hep-1, and SW480), which were confirmed to express a CAPRIN-1 gene, were investigated for whether or not a CAPRIN-1 protein is expressed on the surfaces of these cells. 1×10⁶ cells of each cell line were centrifuged with a 1.5-mL micro centrifugation tube. To the cells was added the culture supernatant (100 μL) containing any of mouse monoclonal antibodies #1 to #22 against a CAPRIN-1 protein reacting to cancer cell surface produced in Example 4 and mouse-chicken chimeric antibodies #1 to #3 against a CAPRIN-1 protein produced in the above (2), followed by being left to stand on ice for 1 hour. After washing with PBS, the cells were suspended in a FITC-labeled goat anti-mouse IgG antibody (manufactured by Invitrogen Corporation) diluted by 500-fold with PBS containing 0.1% FBS, followed by being left to stand on ice for 1 hour. After washing with PBS, the fluorescence intensity was measured with FACS Calibur available from Becton, Dickinson and Company. Separately, as a control, the same procedure as in above was performed using an iso-type control antibody, instead of the culture supernatants containing the mouse monoclonal antibodies #1 to #22 against a CAPRIN-1 protein and the mouse-chicken chimeric antibodies #1 to #3. As a result, the fluorescence intensity in the cells to which any of the monoclonal antibodies #1 to #22 and the mouse-chicken chimeric antibodies #1 to #3 was added was 20% or more higher than that in the control in every case. Specifically, in the case of using mouse-chicken chimeric antibody #1, the fluorescence intensity was enhanced by 200% or more in both SK-Hep-1 and Hep3B. […] The rate of increase in the fluorescence intensity is represented by the rate of increase in the mean fluorescence intensity (MFI value) in each cell and is calculated by the following calculation formula: […]

[9] = biological target: T6, polypeptide set forth in SEQ ID NO: 431 (human); experiment: ELISA on immobilised synthetic CAPRIN-1 peptides, culture supernatant
T6 peptide: VERVFQSNYFDSTHNH

B1: human-chicken chimeric antibody #3 (antibody, human IgG1, kappa, V domains shown)
VH: AVTLDESGGGLQTPGGALSLVCKASGFTFSGYDMLWVRQAPGKGLEWVAGIGSTGGGTDYGAAVKGRATISRDNGQSTVRLQLNNLRAEDTATYYCAKVAGGCNSGYCRDSPGSIDAWGHGTEVIVSA
VL: AVTQQPASVSANPGETVKITCSGGGSRNYYGWYQQKSPGSVPVTVIYYDDQRPSNIPSRFSGALSGSTSTLTITGVQADDEAVYFCGSADSNTYEGSFGAGTTLTVLT
notes: produced similarly to human-chicken chimeric antibody #1 from chicken monoclonal antibody #3; human IgG1 constant domains; also called human-chicken chimeric monoclonal antibody #3
cytotoxicity (ADCC, 51Cr release) on SK-Hep-1 [1]: ≥ 12% | binding result [2]: binds

B2: rabbit anti-CAPRIN-1 monoclonal antibody #1 (antibody, V domains shown)
VH: QSLEESGGDLVKPGASLTLTCTASGFSFSGSYYMSWVRQAPGKGLEWIAYIYIGDGVTAYANWAKGRFTISKASSTTVTLQMTSLTAADTATYFCARGNKLWGPGTLVTVSS
VL: DVVMTQTPASVEAAVGGTVTIKCQASQSISSYLAWYQQKPGQPPKRLIYDASNLDSGVPSRFKGSGSGTDFTITISDLECADAATYYCQCTAVSSATIYGNAFGGGTEVVVK
notes: rabbit hybridoma antibody
binding result [3]: binds

B4: mouse anti-CAPRIN-1 antibody #31 (antibody, V domains shown)
VH: GPELVKPGASVKISCKASGYSFTGYFMNWVMQSHGKSLEWIGRINPYNGDTFYNQKFKGKATLTVDKSSSTAHMELRSLASEDSAVYYCARRIHYYYGSSYYAMDYWGQEPHH
VL: DVQITQSPSYLAASPGETITINCRASKSISKYLAWYQEKPGKTNKLLIYSGSTLQSGIPSRFSGSGSGTDFTLTISSLEPEDFAMYYCQQHNEYPWTFGGGTKLEIKR
notes: mouse hybridoma antibody; also called mouse anti-CAPRIN-1 monoclonal antibody #31
increase in fluorescence intensity over the control [5]: ≥ 35%

B6: mouse anti-CAPRIN-1 antibody #34 (antibody, V domains shown)
VH: GAELVRPGTSVKVSCKASVYAFTNYLIEWVKQRPGQGLEWIGVINPKSGGTKYNEKFRGKATLTADKSSSTAYMQLSSLTSGDSAVYFCAITGTDYWGQGTTLTVSS
VL: QGTRCDIQMTQTTSSLSASLGDRVTISCSASQGINNYLNWYQQKPDGTVKLLIYYTSSLRSGVPSRFSGSGSGTDYSLTISNLEPEDVATYYCQQYSKLPRTFGGGTKLEIKR
notes: mouse hybridoma antibody; also called mouse anti-CAPRIN-1 monoclonal antibody #34; mouse anti-CAPRN-1 antibody #34
binding result [9]: binds | increase in fluorescence intensity over the control [5]: ≥ 35%

Further lines, with some results ahead:

binding result [4]: binds
B3: human-rabbit chimeric anti-CAPRIN-1 antibody #1 (antibody, V domains shown)
VH: QSLEESGGDLVKPGASLTLTCTASGFSFSGSYYMSWVRQAPGKGLEWIAYIYIGDGVTAYANWAKGRFTISKASSTTVTLQMTSLTAADTATYFCARGNKLWGPGTLVTVSS
VL: DVVMTQTPASVEAAVGGTVTIKCQASQSISSYLAWYQQKPGQPPKRLIYDASNLDSGVPSRFKGSGSGTDFTITISDLECADAATYYCQCTAVSSATIYGNAFGGGTEVVVK
notes: also called human-rabbit chimeric anti-CAPRIN-1 monoclonal antibody #1

binding result [6]: binds | binding result [7]: binds | rate of increase in mean fluorescence intensity [8]: ≥ 20%
B5: mouse monoclonal antibody #5 (antibody, V domains shown)
VH: DAELVKPGASVKISCKASGYTFTDHSIHWVQQKPEQGLEWIGYISPGNGNIKYNEKFKGKATLTADKSSSTAYMQLNSLTSEDSAVYFCKRSLGRGGPYYFDYWGQGTTVTVSS
VL: DIVLTQAAPSLPVTPGESVSISCRSSKSLLHSNGNTYLYWFLQRPGQSPQLLIYRMSNLASGVPDRFSGSGSGTAFTLRISRVEAEDVGVYYCMQHREYPVTFGSGPN
notes: mouse hybridoma antibody
cytotoxicity (ADCC, 51Cr release) on SK-Hep-1 [1]: ≥ 12%
